By EC50 is commonly meant the concentration at which the effect is half-maximal. High values mean a less potent agent, low ones a more potent agent.

A value given as a limit tells only on which side of the number the result lay.

One test addresses T1, human HER2/HER4 (Homo sapiens, UniProt Q15303).
T1 construct: expressed in transfected cells
Kind of test: Human HER2/HER4 phospho-ERK 1/2 assay, purified proteins, CHO-K1 cells. It counts as cell-based. As to conditions: for % Maximal NRG1 activity: maximal signal relative to native human NRG1 per plate; for EC50: purified proteins, phospho-ERK1/2. On the procedure: (§1) A cell based assay utilizing CHO-K1 cells overexpressing human or rat HER receptors is used to determine activity of NRG4 compounds. CHO-K1 cells (ATCC) are grown in DMEM-F12 3:1 with 5% FBS with 20 mM HEPES, 40 μg/mL L-Proline, lx antibiotics and were split 1:5 every 2-3 days with TripLE Express (Gibco). Cells are transfected with plasmid DNA encoding HER receptors in pairs (hHER2-3, hHER2-4, rHER2-3 and rHER2-4) with Fugene 6 (Promega) according to the manufacturer's instructions. […] Transfected cells are selected with Puromycin (12 ug/ml) and Hygromycin (1 mg/ml) for 3-4 weeks and clonal lines are obtained by limited dilution cloning into 96 well plates. Clonal lines are selected by appropriate gene expression of HER2, HER3 or HER4 by Taqman method. Lines with appropriate receptor expression are confirmed by NRG1 induced phospho-ERK 1/2 responses. Clones are grown up, harvested, aliquoted into cryovials and then frozen under liquid nitrogen for long-term storage.
(§2) A phospho-ERK1/2 activity assay is utilized with CHO-K1 cells overexpressing human or rat HER receptors to determine potencies and selectivity of purified NRG4 compounds. CHO-K1 cell lines expressing the human or rat HER receptors are cultured with selection medium (DMEM-F12 3:1 with 5% FBS with 20 mM HEPES, 40 μg/mL L-Proline, 1× antibiotics, 12 μg/mL puromycin, 1 mg/mL Hygromycin B). On Day −1 (the day before phospho-ERK1/2 assay), cells are washed once with PBS, detached with enzyme free cell dissociation solution (GIBCO cat #13151-014), and resuspended in plating medium (DMEM-F12 3:1 with 20 mM HEPES, lx antibiotics, 0.2% FBS). Cells are plated in a 96-well Poly-D-Lysine coated plate (BD cat #354640) at 10,000 cells per 0.1 mL per well. Cells are cultured in a tissue culture incubator at 37° C. 5% CO2 overnight. On Day 1 (the day of pERK1/2 assay), plates are incubated at room temperature for 30 min. The culture media are removed followed by addition of 504, ligand at various concentrations diluted in PBS-20 mM HEPES-0.005% BSA. Native human NRG1 and NRG4 peptides are purchased from Reprokine (Tampa, Fla.). The stimulation time is 30 min (except for hHER2-4 1H6 line in which 15 min is used for stimulation). At the end of stimulation, ligands are removed and 704, Lysis buffer (made according to manufacturer's recipe, Perkin Elmer cat #ALSU-PERK-A10K) is added. Plates are incubated at room temperature for 10 min on plate shaker with 350 rpm agitation, then on ice for 1 hour without shaking. 304, of cell lysis is transferred to a 96-well white Optiplate (Perkin Elmer cat #6002290) for phospho-ERK1/2 assay. Briefly 7.5 μL acceptor beads are added to 30 μL lysis in Optiplate. The plate is covered with aluminum foil and incubated at room temperature for 1 hour on plate shaker with 350 rpm agitation. Then 7.5 μL donor beads are added and the plate is covered with aluminum foil and incubated at room temperature for 2 hours on plate shaker with 350 rpm agitation or at 4° C. for overnight (warm up plate at room temperature for 2 h before reading). Alpha signal data are obtained on an Envision instrument (Alpha Technology-compatible plate reader). Donor beads and acceptor beads are made according to assay protocol. The data shown are generated with either the AlphaScreen SureFire p-ERK1/2 (Thr202/Tyr204) assay kit (Cat #TGRES50k) or the AlphaLISA® SureFire® Ultra™ p-ERK 1/2 (Thr202/Tyr204) assay kit (Perkin Elmer cat #ALSU-PERK-A10K). The activity of the NRG1 peptide was similar in both types of assays. Raw data obtained from the Envision instrument is imported into GraphPad Prism software (version 7). The EC50 value is generated by a variable slope-four parameter dose response curve. The % of maximal NRG1 activity data are generated by expressing the average maximal raw data for the NRG4 compound over the average maximal raw data for the native human NRG1 per plate and multiplying by 100. Data are provided below in Tables 7-9. N values reflect number of independent assays run. […]

A further test addresses T2, human HER2/HER3 (Homo sapiens, UniProt P21860).
T2 construct: expressed in transfected cells
Kind of test: Human HER2/HER3 phospho-ERK 1/2 assay, purified proteins, CHO-K1 cells. The format is cell-based. As to conditions: for EC50: purified proteins, phospho-ERK1/2. How it is done: as §1
as §2, with “assays.” for “assays. Raw data obtained from the Envision instrument is imported into GraphPad Prism software (version 7). The EC50 value is generated by a variable slope-four parameter dose response curve. The % of maximal NRG1 activity data are generated by expressing the average maximal raw data for the NRG4 compound over the average maximal raw data for the native human NRG1 per plate and multiplying by 100. Data are provided below in Tables 7-9. N values reflect number of independent assays run.”

With “WT NRG1: wild type human NRG1; native peptide purchased from Reprokine in Tables 7-9; comparator in the screening assays of Tables 4 and 6”, in the test with human HER2/HER4, the “% Maximal NRG1 activity” value was found to be 100% and a half-maximal effect (EC50) was put at 0.67 ± 0.07 nM. In addition, in the test with human HER2/HER3, the half-maximal effective concentration (EC50) is 0.83 ± 0.2 nM.

Take “WT NRG4: wild type human NRG4 (SEQ ID NO:1); parental hFcNRG4 in screening (Tables 4-6), native peptide from Reprokine in Tables 7-9 (DHEEPCGPSHKSFCLNGGLCYVIPTIPSPFCRCVENYTGARCEEVFL; listed as Homo sapiens)”: in the test with human HER2/HER4, the “% Maximal NRG1 activity” value is reported as 75 ± 4 (N = 8) % and the EC50 was found to be 90.1 ± 33.2 nM. In addition, in the test with human HER2/HER3, the half-maximal effective concentration (EC50) was over 1000 nM. Further, the “phospho-ERK1/2 activity at the human HER3 HER2 receptors” value with human HER2/HER3 (statement in text on Table 9) is “no activity”.

B1: Example 10: NRG4 D1G/V22Q/E44K, (GGGGS)3 linker, SEQ ID NO: 19, fused to IgG Fc dimer SEQ ID NO: 6 and 7 (protein)
chain 1: GGGGSGGGGSGGGGSGHEEPCGPSHKSFCLNGGLCYQIPTIPSPFCRCVENYTGARCEKVFL
chain 2: ECPPCPAPPVAGPSVFLFPPKPKDTLMISRTPEVTCVVVDVSHEDPEVQFNWYVDGVEVHNAKTKPREEQFNSTFRVVSVLTVVHQDWLNGKEYKCKVSNKGLPAPIEKTISKTKGQPREPQVYTLPPSREEMTKNQVSLWCLVKGFYPSDIAVEWESNGQPENNYKTTPPVLDSDGSFFLYSKLTVDKSRWQQGNVFSCSVMHEALHNHYTQKSLSLSPG
chain 3: ECPPCPAPPVAGPSVFLFPPKPKDTLMISRTPEVTCVVVDVSHEDPEVQFNWYVDGVEVHNAKTKPREEQFNSTFRVVSVLTVVHQDWLNGKEYKCKVSNKGLPAPIEKTISKTKGQPREPQVYTLPPSREEMTKNQVSLSCAVKGFYPSDIAVEWESNGQPENNYKTTPPVLDSDGSFFLVSKLTVDKSRWQQGNVFSCSVMHEALHNHYTQKSLSLSPG
As to B1, in the test with human HER2/HER4, the “% Maximal NRG1 activity” value is listed as 82 ± 4 (N = 8) % and the EC50 came to 0.16 ± 0.02 nM. Besides, in the test with human HER2/HER3, the 50% effective concentration (EC50) was over 1000 nM.

For the origin of these results see patent US11242370B2, “Neuregulin-4 compounds and methods of use” (Eli Lilly and Company, priority 2019, dated 2022).
